Data: patent US10889618B2, “D-enantiomeric peptides derived from D3 and use thereof” (FORSCHUNGSZENTRUM JUELICH GMBH, priority 2012, dated 2021)
“Also recorded” adds a separate entry of the source. Non-standard residues stand in square brackets, D forms with d. No end group written: not given here.

Key:
[1] = molecular target: T1, A-beta1-42 (Homo sapiens, UniProt P05067); assay: Density gradient centrifugation (iodixanol): modulation of A-beta1-42 aggregation behavior; assay type: biochemical; conditions: for Peptide bound in fraction 12 [%]: FITC-labelled peptide, amount of dye in fraction 12 of the iodixanol gradient, estimate of binding to / precipitation of A-beta oligomers; for Effect on A-beta aggregation (distribution of A-beta over gradient fractions): 80 μM A-beta1-42, 20 μM peptide, 259,000×g, 3 h, 4° C., SDS-PAGE, silver staining
T1 construct: overlayed with 100 μl of a 80 μM A-beta1-42 solution
T1 sequence (P05067 672-713): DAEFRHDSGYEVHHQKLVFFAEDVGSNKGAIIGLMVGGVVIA
Text: The effects of the peptides described in the table on A-beta aggregation were investigated by means of density gradient centrifugation. Thus, A-beta was mixed with the respective peptide and the particles formed are separated according to size. The sample to be investigated was placed on the surface of the centrifuge tube in which a density gradient was charged, which consisted of layers of different iodixanol concentrations in this example. During the several hours of separation, the molecules sediment at different rates in the solvent, namely, more rapidly the larger the particles. The centrifugation is terminated at a suitable time point and different constituents of the sample are obtained in the various layers which are analyzed by SDS-PAGE. A-beta without addition of peptide served as control.
This changes on addition of RD2. […] Large aggregates are formed which are detectable in fractions 10-15. […] All D-enantiomeric peptides which were characterized with A-beta using the method mentioned above were labelled with FITC. The amount of dye detectable in fraction 12 was used to estimate the binding strength of the respective D3 derivative to A-beta oligomers or the oligomer precipitating effects thereof in vitro. It was shown that the peptide RD2 especially has a significant effect on A-beta aggregation compared to D3.
FIG. 1: Modulation of the A-beta1-42 aggregation behavior by RD2, analzyed by an iodixanol density gradient. The iodixanol gradient was overlayed with 100 μl of a 80 μM A-beta1-42 solution and 100 μl of a 80 μM A-beta and 20 μM RD2 mixture. The mixture was then centrifuged at 259,000×g for 3 h at 4° C. The 15 fractions (fraction 15 is the pellet boiled with the loading buffer) were harvested manually immediately after the centrifugation and analyzed by Tris-Tricin-SDS-PAGE followed by silver staining.

[2] = molecular target: A-beta oligomers (Homo sapiens, UniProt P05067); conditions: D3 in higher concentrations (than 20 μM); cited from earlier work
A-beta oligomers, sequence (P05067 672-713 limits assumed): as the sequence (P05067 672-713) above

Row | Substance | Peptide bound in fraction 12 [%] [1] [%] | Effect on A-beta aggregation (distribution of A-beta over gradient fractions) [1] | Precipitation of A-beta oligomers [2]
1 | pnhhrrrrrttl ([dP][dN][dH][dH][dR][dR][dR][dR][dR][dT][dT][dL]) [RD1, D3 derivative, rational D3] | 3 | – | –
2 | ptlhthnrrrrr ([dP][dT][dL][dH][dT][dH][dN][dR][dR][dR][dR][dR]) [RD2, D3 derivative, rational D3] | 20 | fewer A-beta oligomers could be detected in the fractions 3-9 | –
3 | rprtrlrnr ([dR][dP][dR][dT][dR][dL][dR][dN][dR]) [Peptide D3Δhth, D3 with deletion hth] | 2 | – | –
4 | rrptlrhthnrr ([dR][dR][dP][dT][dL][dR][dH][dT][dH][dN][dR][dR]) [RD3, D3 derivative, rational D3] | 4 | – | –
5 | rprtrl ([dR][dP][dR][dT][dR][dL]) [NT-D3, D3 derivative, D3-N-Terminus] | 0 | – | –
6 | rprtrlhthrnr ([dR][dP][dR][dT][dR][dL][dH][dT][dH][dR][dN][dR]) [Peptide D3, D-enantiomeric D-peptide D3, parent peptide used as comparison, reference compound] | 4 | no change was apparent; also recorded: no effect | precipitates A-beta oligomers and converts them into large, amorphous and non-toxic aggregates
